B1: BBSome complex member BBS5 (Homo sapiens), Q8N3I7 (parent)
chain: MSVLDALWEDRDVRFDLSAQQMKTRPGEVLIDCLDSIEDTKGNNGDRGRLLVTNLRILWHSLALSRVNVSVGYNCILNITTRTANSKLRGQTEALYILTKCNSTRFEFIFTNLVPGSPRLFTSVMAVHRAYETSKMYRDFKLRSALIQNKQLRLLPQEHVYDKINGVWNLSSDQGNLGTFFITNVRIVWHANMNDSFNVSIPYLQIRSIKIRDSKFGLALVIESSQQSGGYVLGFKIDPVEKLQESVKEINSLHKVYSASPIFGVDYEMEEKPQPLEALTVEQIQDDVEIDSDGHTDAFVAYFADGNKQQDREPVFSEELGLAIEKLKDGFTLQGLWEVMS
partner: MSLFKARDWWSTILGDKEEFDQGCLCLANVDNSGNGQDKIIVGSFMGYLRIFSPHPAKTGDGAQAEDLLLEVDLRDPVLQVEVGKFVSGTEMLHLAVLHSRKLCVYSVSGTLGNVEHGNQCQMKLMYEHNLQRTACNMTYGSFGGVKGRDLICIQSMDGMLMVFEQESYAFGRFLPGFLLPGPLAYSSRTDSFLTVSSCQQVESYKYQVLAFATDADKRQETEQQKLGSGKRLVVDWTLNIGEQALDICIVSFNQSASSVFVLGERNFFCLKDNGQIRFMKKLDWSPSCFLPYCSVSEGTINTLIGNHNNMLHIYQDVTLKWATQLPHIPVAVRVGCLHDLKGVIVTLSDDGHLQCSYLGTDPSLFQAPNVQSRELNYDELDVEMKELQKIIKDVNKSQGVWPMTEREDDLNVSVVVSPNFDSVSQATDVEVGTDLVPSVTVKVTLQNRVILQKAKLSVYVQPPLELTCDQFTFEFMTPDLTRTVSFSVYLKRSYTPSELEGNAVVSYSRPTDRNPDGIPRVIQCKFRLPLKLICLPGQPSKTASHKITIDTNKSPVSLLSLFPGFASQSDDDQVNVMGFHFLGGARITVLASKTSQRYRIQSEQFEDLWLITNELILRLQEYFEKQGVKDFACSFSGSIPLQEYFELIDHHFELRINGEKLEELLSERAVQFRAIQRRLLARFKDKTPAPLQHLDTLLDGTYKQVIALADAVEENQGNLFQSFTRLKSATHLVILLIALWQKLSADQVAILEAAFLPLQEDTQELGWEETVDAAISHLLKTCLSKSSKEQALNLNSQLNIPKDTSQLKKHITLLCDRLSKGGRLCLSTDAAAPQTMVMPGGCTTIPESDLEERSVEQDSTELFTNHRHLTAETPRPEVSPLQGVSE

The variants in the assay derive from B1. The settings on record: with pthb1_human BBS9, Q3SYG4.
MSVLDALWEDRDVRFDLSAQQMKTRPGEVLIDCLDSIEDTKGNNGDRGRLLVTNLRILWHSLALSRVNVSVGYNCILNITTRTANSKLRGQTEALYILTKCNSTRFEFIFTNLVPGSPRLFTSVMAVHRAYETSKMYRDFKLRSALIQNKQLRLLPQEHVYDKINGVWNLSSDQGNLGTFFIENVRIVWHANMNDSFNVSIPYLQIRSIKIRDSKFGLALVIESSQQSGGYVLGFKIDPVEKLQESVKEINSLHKVYSASPIFGVDYEMEEKPQPLEALTVEQIQDDVEIDSDGHTDAFVAYFADGNKQQDREPVFSEELGLAIEKLKDGFTLQGLWEVMS [T183E]: the “effect of a mutation on the interaction” value is on record as “with no effect”.

Turning to MSVLDALWEDRDVRFDLSAQQMKTRPGEVLIDCLDSIEDTKGNNGDRGRLLVTNLRILWHSLALSRVNVSVGYNCILNITTRTANSKLRGQTEALYILTKCNSTRFEFIFTNLVPGSPRLFTSVMAVHRAYETSKMYRDFKLRSALIQNKQLRLLPQEHVYDKINGVWNLSSDQGNLGTFFATNVRIVWHANMNDSFNVSIPYLQIRSIKIRDSKFGLALVIESSQQSGGYVLGFKIDPVEKLQESVKEINSLHKVYSASPIFGVDYEMEEKPQPLEALTVEQIQDDVEIDSDGHTDAFVAYFADGNKQQDREPVFSEELGLAIEKLKDGFTLQGLWEVMS [I182A], the “effect of a mutation on the interaction” value was “with no effect”. For the variant MSVLDALWEDRDVRFDLSAQQMKTRPGEVLIDCLDSIEDTKGNNGDRGRLLVTNLRILWHSLALSRVNVSVGYNCILNITTRTANSKLRGQTEALYILTKCNSTRFEFIFTNLVPGSPRLFTSVMAVHRAYETSKMYRDFKLRSALIQNKQLRLLPQEHVYDKINGVWNLSSDQGNLGTFFETNVRIVWHANMNDSFNVSIPYLQIRSIKIRDSKFGLALVIESSQQSGGYVLGFKIDPVEKLQESVKEINSLHKVYSASPIFGVDYEMEEKPQPLEALTVEQIQDDVEIDSDGHTDAFVAYFADGNKQQDREPVFSEELGLAIEKLKDGFTLQGLWEVMS [I182E], the “effect of a mutation on the interaction” value is “with no effect”. Turning to MSVLDALWEDRDVRFDLSAQQMKTRPGEVLIDCLDSIEDTKGNNGDRGRLLVTNLRILWHSLALSRVNVSVGYNCILNITTRTANSKLRGQTEALYILTKCNSTRFEFIFTNLVPGSPRLFTSVMAVHRAYETSKMYRDFKLRSALIQNKQLRLLPQEHVYDKINGVWNLSSDQGNLGTFFKTNVRIVWHANMNDSFNVSIPYLQIRSIKIRDSKFGLALVIESSQQSGGYVLGFKIDPVEKLQESVKEINSLHKVYSASPIFGVDYEMEEKPQPLEALTVEQIQDDVEIDSDGHTDAFVAYFADGNKQQDREPVFSEELGLAIEKLKDGFTLQGLWEVMS [I182K], the “effect of a mutation on the interaction” value is reported as “disrupting interaction strength”.

Turning to MSVLDALWEDRDVRFDLSAQQMKTRPGEVLIDCLDSIEDTKGNNGDRGRLLVTNLRILWHSLALSRVNVSVGYNCILNITTRTANSKLRGQTEALYILTKCNSTRFEFIFTNLVPGSPRLFTSVMAVHRAYETSKMYRDFKLRSALIQNKQLRLLPQEHVYDKINGVWNLSSDQGNLGTFFITNARIVWHANMNDSFNVSIPYLQIRSIKIRDSKFGLALVIESSQQSGGYVLGFKIDPVEKLQESVKEINSLHKVYSASPIFGVDYEMEEKPQPLEALTVEQIQDDVEIDSDGHTDAFVAYFADGNKQQDREPVFSEELGLAIEKLKDGFTLQGLWEVMS [V185A], the “effect of a mutation on the interaction” value is on record as “with no effect”. As for MSVLDALWEDRDVRFDLSAQQMKTRPGEVLIDCLDSIEDTKGNNGDRGRLLVTNLRILWHSLALSRVNVSVGYNCILNITTRTANSKLRGQTEALYILTKCNSTRFEFIFTNLVPGSPRLFTSVMAVHRAYETSKMYRDFKLRSALIQNKQLRLLPQEHVYDKINGVWNLSSDQGNLGTFAITNVRIVWHANMNDSFNVSIPYLQIRSIKIRDSKFGLALVIESSQQSGGYVLGFKIDPVEKLQESVKEINSLHKVYSASPIFGVDYEMEEKPQPLEALTVEQIQDDVEIDSDGHTDAFVAYFADGNKQQDREPVFSEELGLAIEKLKDGFTLQGLWEVMS [F181A], the “effect of a mutation on the interaction” value was “with no effect”. To MSVLDALWEDRDVRFDLSAQQMKTRPGEVLIDCLDSIEDTKGNNGDRGRLLVTNLRILWHSLALSRVNVSVGYNCILNITTRTANSKLRGQTEALYILTKCNSTRFEFIFTNLVPGSPRLFTSVMAVHRAYETSKMYRDFKLRSALIQNKQLRLLPQEHVYDKINGVWNLSSDQGNLGTFKITNVRIVWHANMNDSFNVSIPYLQIRSIKIRDSKFGLALVIESSQQSGGYVLGFKIDPVEKLQESVKEINSLHKVYSASPIFGVDYEMEEKPQPLEALTVEQIQDDVEIDSDGHTDAFVAYFADGNKQQDREPVFSEELGLAIEKLKDGFTLQGLWEVMS [F181K] belongs “with no effect”; to MSVLDALWEDRDVRFDLSAQQMKTRPGEVLIDCLDSIEDTKGNNGDRGRLLVTNLRILWHSLALSRVNVSVGYNCILNITTRTANSKLRGQTEALYILTKCNSTRFEFIFTNLVPGSPRLFTSVMAVHRAYETSKMYRDFKLRSALIQNKQLRLLPQEHVYDKINGVWNLSSDQGNLGTFEITNVRIVWHANMNDSFNVSIPYLQIRSIKIRDSKFGLALVIESSQQSGGYVLGFKIDPVEKLQESVKEINSLHKVYSASPIFGVDYEMEEKPQPLEALTVEQIQDDVEIDSDGHTDAFVAYFADGNKQQDREPVFSEELGLAIEKLKDGFTLQGLWEVMS [F181E], “with no effect”; to MSVLDALWEDRDVRFDLSAQQMKTRPGEVLIDCLDSIEDTKGNNGDRGRLLVTNLRILWHSLALSRVNVSVGYNCILNITTRTANSKLRGQTEALYILTKCNSTRFEFIFTNLVPGSPRLFTSVMAVHRAYETSKMYRDFKLRSALIQNKQLRLLPQEHVYDKINGVWNLSSDQGNLGKFFITNVRIVWHANMNDSFNVSIPYLQIRSIKIRDSKFGLALVIESSQQSGGYVLGFKIDPVEKLQESVKEINSLHKVYSASPIFGVDYEMEEKPQPLEALTVEQIQDDVEIDSDGHTDAFVAYFADGNKQQDREPVFSEELGLAIEKLKDGFTLQGLWEVMS [T179K], “with no effect”.

The record behind these values is IntAct's records for PubMed 29039417.
